{"source": "paper PMC3033577", "about": "(FEBS letters, 2004)", "binders": {"B1": {"name": "B. subtilis DnaI, putative helicase loader (natural protein, UniProt P06567 1-311, looked up)", "chain": "MEPIGRSLQGVTGRPDFQKRLEQMKEKVMKDQDVQAFLKENEEVIDQKMIEKSLNKLYEYIEQSKNCSYCSEDENCNNLLEGYHPKLVVNGRSIDIEYYECPVKRKLDQQKKQQSLMKSMYIQQDLLGATFQQVDISDPSRLAMFQHVTDFLKSYNETGKGKGLYLYGKFGVGKTFMLAAIANELAEKEYSSMIVYVPEFVRELKNSLQDQTLEEKLNMVKTTPVLMLDDIGAESMTSWVRDEVIGTVLQHRMSQQLPTFFSSNFSPDELKHHFTYSQRGEKEEVKAARLMERILYLAAPIRLDGENRRHP"}, "B2": {"name": "33mer oligonucleotide (radiolabeled) (ssDNA)", "DNA": "TGCATGCCTGCAGGTCGACTCTAGAGGATCCCC"}, "B3": {"name": "33mer oligonucleotide (5'-HEX) (ssDNA)", "DNA": "B2 DNA"}}, "key": {"[1]": {"target": "T1, B. stearothermophilus DnaB, main replicative ring helicase (B. stearothermophilus, UniProt Q9X4C9 1-454)", "T1 sequence (looked up)": "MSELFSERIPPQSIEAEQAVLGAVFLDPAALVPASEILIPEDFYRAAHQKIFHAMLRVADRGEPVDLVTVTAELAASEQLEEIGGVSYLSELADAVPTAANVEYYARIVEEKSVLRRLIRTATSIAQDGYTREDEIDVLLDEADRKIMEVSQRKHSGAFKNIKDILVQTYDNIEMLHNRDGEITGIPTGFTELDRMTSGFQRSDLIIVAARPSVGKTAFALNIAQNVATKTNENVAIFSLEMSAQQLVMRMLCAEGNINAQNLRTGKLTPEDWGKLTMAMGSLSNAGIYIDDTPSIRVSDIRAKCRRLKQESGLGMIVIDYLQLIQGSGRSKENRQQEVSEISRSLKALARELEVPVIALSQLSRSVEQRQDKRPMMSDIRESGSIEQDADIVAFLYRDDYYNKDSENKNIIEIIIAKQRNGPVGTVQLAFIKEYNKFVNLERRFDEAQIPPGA", "assay": "SEC"}, "[2]": {"target": "T2, DnaD (Bacillus subtilis (strain 168 EMG50), UniProt P39787 1-232)", "T2 sequence": "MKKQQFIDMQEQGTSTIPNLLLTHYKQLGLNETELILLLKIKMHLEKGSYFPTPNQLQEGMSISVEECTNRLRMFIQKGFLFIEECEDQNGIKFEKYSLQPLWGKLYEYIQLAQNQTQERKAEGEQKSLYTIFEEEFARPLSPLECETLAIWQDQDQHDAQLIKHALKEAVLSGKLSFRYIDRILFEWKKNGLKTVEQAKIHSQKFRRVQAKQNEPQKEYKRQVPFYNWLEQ", "assay": "EMSA"}, "[3]": {"target": "T2, DnaD", "assay": "sedimentation velocity ultracentrifugation"}}}
{"binder": "B1", "values": [{"measurement": "binding result", "setting": "[1]", "result": "binds"}]}
{"binder": "B2", "values": [{"measurement": "binding result", "setting": "[2]", "result": "binds"}]}
{"binder": "B3", "values": [{"measurement": "binding result", "setting": "[3]", "result": "binds"}]}
